The target of this experiment is T1, BHP2 (pro-survival Bcl-2 homolog from Geodia cydonium), residues 18-200 (Geodia cydonium, UniProt Q967D2 18-200).
T1 construct: BHP2, Geodia cydonium, Uniprot Q967D2, residues 18-200; codon-optimized synthetic cDNA; also called recombinant BHP2; source: E. coli BL21 (DE3) star, purified (Glutathione Sepharose 4B, HRV 3C protease cleavage on column, Superdex S200 SEC)
T1 sequence (looked up): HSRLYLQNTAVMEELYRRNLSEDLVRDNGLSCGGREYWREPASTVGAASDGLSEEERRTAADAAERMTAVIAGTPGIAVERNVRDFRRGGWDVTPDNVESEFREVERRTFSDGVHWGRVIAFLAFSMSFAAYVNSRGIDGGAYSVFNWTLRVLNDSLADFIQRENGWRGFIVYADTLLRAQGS
Nature of the experiment: ITC; BH3 peptide (200 μM) titrated into BHP2 (20 μM), 19 injections of 2.0 μl, MicroCal iTC200, 25 °C, 25 mM HEPES pH 7.5, 150 mM NaCl; triplicate. The following applies: both partners purified. A general note: Isothermal titration calorimetry measures the heat released or taken up as one component is titrated into another.

B1: human Hrk BH3 peptide (peptide)
chain: not shown
One may read the Kd as the free concentration of one partner at which half of the binding sites on the other are occupied at equilibrium, for simple one-to-one binding. The low end stands for higher affinity, the high end for lower affinity. Consider B1, for which the Kd stood at 3760 nM.

B2: LB-Bak-2 BH3 peptide (residues 62-89) (peptide, UniProt Q1RPT5 62-89, looked up)
peptide: ALASSMASEVGRRLAEFGDQVDGQFYQE
notes: LB-Bak-2, Lubomirskia baicalensis, Uniprot Q1RPT5, BH3 motif, residues 62-89; also called LB-Bak-2 BH3 motif; LB-Bak-2 BH3 domain; source: synthetic peptide (GenScript), purified to 95%
B2 returned a Kd of 65 nM.

These data come from article PMC5386376, “Structural insight into an evolutionarily ancient programmed cell death regulator – the crystal structure of marine sponge BHP2 bound to LB-Bak-2” (Cell Death & Disease, 2017).
